Assay results from patent US20230287125A1 (LEPU BIOPHARMA, published 2023).
One block for each binder: values may come before it.

Columns and labels:
[1] = molecular target: T1, human PD-L1-Fc protein (human, UniProt Q9NZQ7 19-238); test: ELISA, antibody titrated on coated human PD-L1-Fc, OD 450nm; lower left panel (with Hu47C6A3-3)
T1 construct: coating antigen of the ELISAs; also called rhPD-L1-Fc; not shown: Fc
Procedure: (§1) To evaluate antigen binding activity, the humanized antibodies were subjected to ELISA test. Briefly, microtiter plates were coated with human PD-L1-Fc protein at 0.5 μg/ml in PBS, 100 μl/well at 4° C. overnight, then blocked with 200 μl/well of 1% BSA. Three-fold dilutions of humanized antibodies starting from 10 μg/ml were added to each well and incubated for 1 hour at 37° C. The plates were washed with PBS/Tween and then incubated with mouse-anti-human IgG Fab antibody conjugated with Horse Radish Peroxidase (HRP) for 1 hour at 37° C. After washing, the plates were developed with TMB substrate and analyzed by spectrophotometer at OD 450 nm.

[2] = molecular target: T1, human PD-L1-Fc protein; test: ELISA, coated human PD-L1 (PD-L1-Fc per paragraph 110)
Procedure: (§2) Briefly, microtiter plates were coated with human PD-L1-Fc protein at 0.5 μg/ml in PBS, 100 μl/well at 4° C. overnight, then blocked with 150 μl/well of 1% BSA. […] The plates were washed with PBS/Tween and then incubated with Mouse-anti-human IgG Fab antibody conjugated with Horse Radish Peroxidase (HRP) for 30 mins at 37° C. After washing, the plates were developed with TMB substrate and analyzed by spectrophotometer at OD 450 nm.
(§3) Briefly, microtiter plates were coated with human, mouse, rat and cynomolgus PD-L1 proteins at 0.5 μg/ml in PBS, 100 μl/well at 4° C. overnight, then blocked with 150 μl/well of 1% BSA. Three-fold dilutions of chimeric antibodies starting from 10 μg/ml were added to each well and incubated for 1 hour at 37° C. The plates were washed with PBS/Tween and then incubate with mouse-anti-human IgG Fab antibody conjugated with Horse Radish Peroxidase (HRP) for 30 mins at 37° C. After washing, the plates were developed with TMB substrate and analyzed by spectrophotometer at OD 450 nm.

[3] = molecular target: T1, human PD-L1-Fc protein; test: receptor blocking ELISA: coated human PD-L1-Fc, blocked ligand biotin-labeled human PD-1-Fc (Bio-PD1), OD 450nm; lower left panel (with Hu47C6A3-3)
Procedure: as §2, with “BSA at 37° C. for 2 hours.” for “BSA.”, “Streptavidin-HRP” for “Mouse-anti-human IgG Fab antibody conjugated with Horse Radish Peroxidase (HRP)”, “10” for “30”

[4] = molecular target: rat PD-L1 protein (rat, UniProt D4AE25 19-239); test: ELISA, coated rat PD-L1
Procedure: (§4) ELISA testing was carried out to evaluate the binding of chimeric antibodies to human, mouse, rat, and cynomolgus PD-L1, respectively.
as §3

[5] = molecular target: T1, human PD-L1-Fc protein; test: competition ELISA, coated human PD-L1-Fc, biotin-labeled human PD-1-Fc as competitor
Procedure: as §2, with “Streptavidin-HRP” for “Mouse-anti-human IgG Fab antibody conjugated with Horse Radish Peroxidase (HRP)”, “10” for “30”

[6] = molecular target: cynomolgus PD-L1 protein (cynomolgus, UniProt G7PSE7 19-238); test: ELISA, coated cynomolgus PD-L1
Procedure: as §4, §3

[7] = molecular target: T1, human PD-L1-Fc protein; test: receptor blocking ELISA: coated human PD-L1-Fc, blocked ligand biotin-labeled human CD80-Fc (Bio-CD80), OD 450nm; upper right panel (with Hu47C6A3-2)
Procedure: as §2, with “BSA at 37° C. for 2 hours.” for “BSA.”, “Streptavidin-HRP” for “Mouse-anti-human IgG Fab antibody conjugated with Horse Radish Peroxidase (HRP)”, “10” for “30”

[8] = molecular target: T1, human PD-L1-Fc protein; test: receptor blocking ELISA: coated human PD-L1-Fc, blocked ligand biotin-labeled human PD-1-Fc (Bio-PD1), OD 450nm; upper right panel (with Hu47C6A3-2)
Procedure: as §2, with “BSA at 37° C. for 2 hours.” for “BSA.”, “Streptavidin-HRP” for “Mouse-anti-human IgG Fab antibody conjugated with Horse Radish Peroxidase (HRP)”, “10” for “30”

[9] = molecular target: T2, human PD-L1-his tag protein (human, UniProt Q9NZQ7 19-238); test: SPR (Biacore T200), mAb captured on Protein A chip, PD-L1-his injected
T2 construct: also called human PD-L1-His protein; recombinant PD-L1 protein; not shown: his tag
Procedure: A serial dilution of human PD-L1-his tag protein was injected over captured antibody for 2 mins at a flow rate of 30 μl/min. The antigen was allowed to dissociate for 480-1500 s. All the experiment were carried out on a Biacore T200. Data analysis was carried out using Biacore T200 evaluation software.

[10] = molecular target: T3, human PD-L1 over-expressed on CHOK1 cells (human, UniProt Q9NZQ7 19-290); test: flow cytometry (MFI) on PDL1-CHOK1 cells; upper left panel (with Hu47C6A3-1 to -3)
T3 construct: whole, on cells; also called PDL1-CHOK1 cells
Procedure: (§5) To evaluate the antigen binding property, the humanized antibodies were analyzed for their binding to PD-L1 overexpressed on mammalian cells by FACS. Briefly, PDL1-CHOK1 cells were firstly incubated with 3-fold serious diluted humanized antibodies starting at 15 μg/ml at 4° C. for 40 mins. After washed by PBS, the Alexa Fluor® 647 AffiniPure Goat Anti-Human IgG (H+L) antibody was added to each well and incubated at 4° C. for 30 mins. The MFI of Alexa Fluor® 647 was evaluated by FACSCanto.

[11] = molecular target: mouse PD-L1 protein (mouse, UniProt Q9EP73 19-239); test: ELISA, coated mouse PD-L1
Procedure: as §4, §3

[12] = molecular target: T1, human PD-L1-Fc protein; test: ELISA, antibody titrated on coated human PD-L1-Fc, OD 450nm; upper right panel (with Hu47C6A3-2)
Procedure: as §1

[13] = molecular target: T1, human PD-L1-Fc protein; test: receptor blocking ELISA: coated human PD-L1-Fc, blocked ligand biotin-labeled human CD80-Fc (Bio-CD80), OD 450nm; lower left panel (with Hu47C6A3-3)
Procedure: as §2, with “BSA at 37° C. for 2 hours.” for “BSA.”, “Streptavidin-HRP” for “Mouse-anti-human IgG Fab antibody conjugated with Horse Radish Peroxidase (HRP)”, “10” for “30”

[14] = molecular target: T3, human PD-L1 over-expressed on CHOK1 …; test: flow cytometry on PDL1-CHOK1 cells
Procedure: After washing by PBS, Alexa Fluor® 647 AffiniPure Goat Anti-Human IgG (H+L) was added to each well and incubated at 4° C. for 30 mins. Samples were washed twice with FACS buffer. The mean florescence intensity (MFI) of Alexa Fluor® 647 was evaluated by FACSCanto.

[15] = molecular target: T1, human PD-L1-Fc protein; test: receptor blocking ELISA: coated human PD-L1-Fc, blocked ligand biotin-labeled human CD80-Fc (Bio-CD80), OD 450nm; upper left panel (with Hu47C6A3-1)
Procedure: as §2, with “BSA at 37° C. for 2 hours.” for “BSA.”, “Streptavidin-HRP” for “Mouse-anti-human IgG Fab antibody conjugated with Horse Radish Peroxidase (HRP)”, “10” for “30”

[16] = molecular target: T1, human PD-L1-Fc protein; test: ELISA, antibody titrated on coated human PD-L1-Fc, OD 450nm; upper left panel (with Hu47C6A3-1)
Procedure: as §1

[17] = molecular target: T3, human PD-L1 over-expressed on CHOK1 …; test: flow cytometry (MFI) on PDL1-CHOK1 cells; upper right panel
Procedure: as §5

[18] = molecular target: T1, human PD-L1-Fc protein; test: receptor blocking ELISA: coated human PD-L1-Fc, blocked ligand biotin-labeled human PD-1-Fc (Bio-PD1), OD 450nm; middle left panel
Procedure: as §2, with “BSA at 37° C. for 2 hours.” for “BSA.”, “Streptavidin-HRP” for “Mouse-anti-human IgG Fab antibody conjugated with Horse Radish Peroxidase (HRP)”, “10” for “30”

[19] = molecular target: T1, human PD-L1-Fc protein; test: ELISA, antibody titrated on coated human PD-L1-Fc, OD 450nm; upper left panel
Procedure: as §1

[20] = molecular target: T2, human PD-L1-his tag protein; test: SPR (Biacore T200), mAb captured on Protein A chip, PD-L1-his injected; remark: listed apart in the source
Procedure: The binding of the humanized antibodies to recombinant PD-L1 protein (human PD-L1-his tag) was tested by Biacore using a capture method. […] A serial dilution of human PD-L1-his tag protein was injected over captured antibody for 2 mins at a flow rate of 30 μl/min. The antigen was allowed to dissociate for 1500 s. All the experiment were carried out on a Biacore T200.

[21] = molecular target: T2, human PD-L1-his tag protein; test: SPR (Biacore), affinity ranking, PDL1-His
[22] = molecular target: T1, human PD-L1-Fc protein; test: receptor blocking ELISA: coated human PD-L1-Fc, blocked ligand biotin-labeled human CD80-Fc (Bio-CD80), OD 450nm; middle left panel
Procedure: as §2, with “BSA at 37° C. for 2 hours.” for “BSA.”, “Streptavidin-HRP” for “Mouse-anti-human IgG Fab antibody conjugated with Horse Radish Peroxidase (HRP)”, “10” for “30”

T3 sequence (Q9NZQ7 19-290): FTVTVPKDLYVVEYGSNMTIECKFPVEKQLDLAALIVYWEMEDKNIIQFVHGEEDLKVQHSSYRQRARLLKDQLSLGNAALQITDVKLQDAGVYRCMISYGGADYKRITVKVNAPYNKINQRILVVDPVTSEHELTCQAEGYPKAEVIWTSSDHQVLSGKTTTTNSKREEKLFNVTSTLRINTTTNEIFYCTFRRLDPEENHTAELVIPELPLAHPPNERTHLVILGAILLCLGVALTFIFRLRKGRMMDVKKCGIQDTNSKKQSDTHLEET
T2 sequence (Q9NZQ7 19-238 limits assumed): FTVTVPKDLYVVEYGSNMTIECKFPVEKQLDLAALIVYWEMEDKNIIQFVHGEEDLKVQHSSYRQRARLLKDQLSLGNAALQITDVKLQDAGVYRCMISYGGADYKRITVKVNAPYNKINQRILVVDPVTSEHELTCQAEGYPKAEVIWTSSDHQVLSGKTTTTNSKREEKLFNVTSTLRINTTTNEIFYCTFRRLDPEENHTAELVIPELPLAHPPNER
T1 sequence (Q9NZQ7 19-238 limits assumed): as above
Chain of mouse PD-L1 protein (Q9EP73 19-239 limits assumed): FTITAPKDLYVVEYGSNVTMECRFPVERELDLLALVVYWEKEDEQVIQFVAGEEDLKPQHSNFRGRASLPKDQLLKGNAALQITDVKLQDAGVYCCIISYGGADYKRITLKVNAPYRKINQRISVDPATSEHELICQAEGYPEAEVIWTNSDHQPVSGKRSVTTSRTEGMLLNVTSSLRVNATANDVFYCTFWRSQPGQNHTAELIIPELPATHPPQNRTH
Chain of cynomolgus PD-L1 protein (G7PSE7 entry or part of it): as the sequence (Q9NZQ7 19-238 limits assumed) above, with A33T, A34S, S62N, R68Q, Q82R, F173L, T185A, T192I, H215L counted along it
Chain of rat PD-L1 protein (D4AE25 entry or part of it limits assumed): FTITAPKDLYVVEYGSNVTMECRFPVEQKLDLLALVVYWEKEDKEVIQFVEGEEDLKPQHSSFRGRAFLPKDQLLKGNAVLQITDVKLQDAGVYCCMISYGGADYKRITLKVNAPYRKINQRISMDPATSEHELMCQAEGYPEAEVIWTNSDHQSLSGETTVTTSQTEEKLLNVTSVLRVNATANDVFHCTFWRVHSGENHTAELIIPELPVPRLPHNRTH

- EC50 [1]: 0.0176 µg/mL
- EC50 [2]: 0.0102 µg/mL
- IC50 [3]: 0.099 µg/mL
- IC50 [5]: 0.0912 µg/mL
- EC50 [6]: 0.00634 µg/mL
- IC50 [7]: 0.395 µg/mL
- IC50 [8]: 0.0857 µg/mL
- Kd [9]: 0.366 nM
- koff [9]: 0.000678 s⁻¹
- kon [9]: 1.85e+06 M⁻¹ s⁻¹
- EC50 [10]: 0.113 nM
- EC50 [12]: 0.0124 µg/mL
- IC50 [13]: 0.439 µg/mL
- EC50 [14]: 0.148 nM
- IC50 [15]: 0.436 µg/mL
- EC50 [16]: 0.0115 µg/mL
B1: 47C6A3 chimeric mAb (antibody, V domains shown)
VH: DVQLQESGPGLVKPSQSLSLTCTVTGYSITSDYAWNWIRQFPGNKLEWMGYIIYSGSTSYNPSLKSRISITRDTSKNQFFLQLNSVTTEDTATYYCARSTMIATNWFAYWGQGTLVTVSA
VL: DIVMTQSHKFMSTSVVDRVSITCKASQDVSLAVAWYQQKPGQSPKLLIYWASTRHTGVPDRFTGSGSGTDFALTISSVQAEDLALYYCQQHYITPWTFGGGTKLEIK
notes: chimeric mAb of the hybridoma clone; also called 47C6A3-chimera
- binding result [4]: no binding (tested: dilutions starting from 10 µg/ml)
- binding result [11]: no binding (tested: dilutions starting from 10 µg/ml)

- EC50 [17]: 0.115 nM
- IC50 [18]: 0.127 µg/mL
- EC50 [19]: 0.0133 µg/mL
- Kd [20]: 0.0431 nM
- koff [20]: 7.92e-05 s⁻¹
- kon [20]: 1.84e+06 M⁻¹ s⁻¹
- Kd [21]: 0.037 nM
- koff [21]: 9.71e-05 s⁻¹
- kon [21]: 2.62e+06 M⁻¹ s⁻¹
- IC50 [22]: 0.344 µg/mL
B2: Hu67F3G7-5 (antibody, V domains shown)
VH: EVQLVQSGAEVKKPGASVKVSCKASGYIFTDFWVSWVRQAPGKGLEWIGEIYPNSGVSRYNEKFKGRVTMTVDKSISTAYMELSRLRSDDTAVYYCTKYFGYTYWFGYWGQGTLVTVSS
VL: DIQMTQSPSSLSASVGDRVTITCRASKSVSTYMHWYQQKPGKAPKLLIYSASHLESGVPSRFSGSGSGTDFTLTISSLQPEDFATYYCQQSNELPVTFGGGTKVEIK
notes: humanized
